Assay type in all cases: physicochemical
A short description of series [1]: Retention of peptides in flat-bottomed polypropylene wells. The note with it: flat-bottom wells, 500V scan. A digest of the protocol: (§1)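 1 μl of 10 μM peptide or TAMRA in 10 mM Tris-HCl pH 8.0/50% acetonitrile dried in the dark in flat- or V-bottomed polypropylene wells. Some wells washed 15 min at RT with 1 M NaCl in 10 mM Tris pH 8.0, others left untreated; all redissolved in 50 μl Tris/acetonitrile and fluorescence imaged at 532 nm excitation, 580 BP 30 filter.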

Series [2] in a line: Retention of peptides on Greiner polypropylene V-bottom wells. The note with it: 400V scan. In a few lines: (§2)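 Peptides (5 μM) and TAMRA dried from 5 mM tris-HCl pH 8.0 in 75% acetonitrile in V-bottom wells; some wells washed 15 min at room temperature with 1 M NaCl in 10 mM tris-HCl pH 8.0. Residue redissolved in 10 mM tris-HCl pH 8.0/50% acetonitrile; retained fluorescence imaged with 532 nm excitation, 580 BP 30 filter.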

Series [3] can be described thus: Retention of peptides 2DOS-1 to 2DOS-16 on a hydrophobic surface (polypropylene microtitre plate wells), water wash. The note with it: 400V scan. The method, then:
The retention of peptides 2DOS-1 to 2DOS-16 on a hydrophobic surface (the wells of a polypropylene microtitre plate) was then investigated.
10 mM tris-HCl (pH 8.0) in 50% (v/v) aqueous acetonitrile was used as the solvent for the peptides and for TAMRA.
100 μl aliquots of 10 μM peptides 2DOS-1 to 2DOS-16 and 10 μM TAMRA were placed in the wells of a Costar microtitre plate as shown in FIG. 13:
The microtitre plate was imaged at 200 μm resolution on a Typhoon Trio Plus variable mode imager (Amersham Biosciences) with the green (532 nm) laser and the 580 BP 30 filter at the PMT voltages indicated below and at normal sensitivity. The scan height was set at +3 mm and the sample was pressed during scanning.
The peptides were allowed to evaporate to dryness overnight in the dark and the microtitre plate was again scanned as described above.
The wells were then washed ten times with 250 μl of water.
The residual surface-bound peptides were finally resuspended in 100 μl of 10 mM tris-HCl (pH 8.0) in 50% (v/v) aqueous acetonitrile and the microtitre plate was again scanned as described above.
The fluorescence images were analysed using ImageQuant TL v2003.03 (Amersham Biosciences).
Quantification data (using the data from the 400V scan) is given in Table 2 and shown graphically in FIG. 15.

Series [4] is described as follows: Retention of peptides in V-bottomed polypropylene wells. The note with it: V-bottom wells, 500V scan. In a few lines:
as §1

Series [5] in a line: Retention of peptides on Greiner polystyrene V-bottom wells. The note with it: 400V scan. A digest of the protocol: as §2
Series [6] can be described thus: Retention of peptides on Costar polypropylene V-bottom wells. The note with it: 400V scan. In a few lines: as §2
[7] abbreviates: washed 15 minutes in 1 M NaCl in 10 mM tris-HCl (pH 8.0).

Ends that are not written are not given here.

Turning to “N-TAMRA-Ser-Asp- Ser-Asp-Ser-Asp- Ser-Asp-Ser-C ({TAMRA}-SDSDSDSDS) [Peptide 2DOS-11]”, the Percent retention is recorded as 3% in series [1]; 2% in series [2]; 2% in series [4]; 1% in series [5]; 2% in series [6]. For the same substance, the Untreated fluorescence in series [1] (unwashed) is on record as 13,960,552; in series [2] (unwashed), 3,510,896; in series [4] (unwashed), 9,705,293; in series [5] (unwashed), 675,269; in series [6] (unwashed) it was 5,327,435. For the same substance, the Retained fluorescence in series [1] (setting [7]) is listed as 476,318; in series [2] (setting [7]) it was 86,818; in series [4] (setting [7]) it was 192,272; in series [5] (setting [7]) it was 7,365; in series [6] (setting [7]) it was 102,040. In addition, the “Initial fluorescence (×10^3)” value in series [3] (100 μl of 10 μM peptide before drying and washing) is recorded as 26,860 ×10^3. The “Recovered fluorescence (×10^3)” value in series [3] (dried, washed ten times with 250 μl water, resuspended) was 0 ×10^3.

The values are drawn from US20090192048A1, “METHOD OF PRODUCING A […] AGENT FOR BINDING A LIGAND” (priority 2005, published 2009).
